According to publication PMC7793589 (Science Advances, 2021):

What was measured:
[1] = target: plasma kallikrein (human)
[2] = target: the molecule itself; assay: SAXS

Row | IC50 of ITIH4 on cleavage of HMWK by plasma kallikrein in Ca2+/Mg2+, SDS-PAGE [1] [nM] | Molecule | stoichiometry N [2]
1 | 90 | recombinant ITIH4 (ITIH4 WT) (from UniProt Q14624 29-930) (natural protein) | 
2 |  | recombinant ITIH4 (ITIH4 WT) (natural protein, human, UniProt Q14624 29-930, looked up) EKNGIDIYSLTVDSRVSSRFAHTVVTSRVVNRANTVQEATFQMELPKKAFITNFSMIIDGMTYPGIIKEKAEAQAQYSAAVAKGKSAGLVKATGRNMEQFQVSVSVAPNAKITFELVYEELLKRRLGVYELLLKVRPQQLVKHLQMDIHIFEPQGISFLETESTFMTNQLVDALTTWQNKTKAHIRFKPTLSQQQKSPEQQETVLDGNLIIRYDVDRAISGGSIQIENGYFVHYFAPEGLTTMPKNVVFVIDKSGSMSGRKIQQTREALIKILDDLSPRDQFNLIVFSTEATQWRPSLVPASAENVNKARSFAAGIQALGGTNINDAMLMAVQLLDSSNQEERLPEGSVSLIILLTDGDPTVGETNPRSIQNNVREAVSGRYSLFCLGFGFDVSYAFLEKLALDNGGLARRIHEDSDSALQLQDFYQEVANPLLTAVTFEYPSNAVEEVTQNNFRLLFKGSEMVVAGKLQDRGPDVLTATVSGKLPTQNITFQTESSVAEQEAEFQSPKYIFHNFMERLWAYLTIQQLLEQTVSASDADQQALRNQALNLSLAYSFVTPLTSMVVTKPDDQEQSQVAEKPMEGESRNRNVHSGSTFFKYYLQGAKIPKPEASFSPRRGWNRQAGAAGSRMNFRPGVLSSRQLGLPGPPDVPDHAAYHPFRRLAILPASAPPATSNPDPAVSRVMNMKIEETTMTTQTPAPIQAPSAILPLPGQSVERLCVDPRHRQGPVNLLSDPEQGVEVTGQYEREKAGFSWIEVTFKNPLVWVHASPEHVVVTRNRRSSAYKWKETLFSVMPGLKMTMDKTGLLLLSDPDKVTIGLLFWDGRGEGLRLLLRDTDRFSSHVGGTLGQFYQEVLWGSPAASDDGRRTLRVQGNDHSATRERRLDYQEGPPGVEISCWSVEL | 2
